# T1: human FcγRIIb (CD32b) extracellular domain (human, UniProt P31994 43-217)
# T1 construct: extracellular domain
# T1 sequence (looked up): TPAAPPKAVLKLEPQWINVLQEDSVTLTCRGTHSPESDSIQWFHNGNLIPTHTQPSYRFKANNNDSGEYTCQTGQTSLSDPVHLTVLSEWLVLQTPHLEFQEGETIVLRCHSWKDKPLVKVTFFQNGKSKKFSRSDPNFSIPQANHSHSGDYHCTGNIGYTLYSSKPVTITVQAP
# Experiments:
# [1] = biological target: T2, human FcγRIIIA_158F (CD16a) extracellular domain (human, UniProt P08637 17-208); assay: SPR at 25 C (Biacore T200), antibody captured on Protein A chip, FcγR ECD as analyte, steady state; average of 3, SD 0.03
# T2 construct: extracellular domain
# Procedure: (§1) Briefly, the surfaces of all 4 flow cells were activated by injecting a 1:1 mixture of EDC/NHS for 7 minutes at 10 μL/minute. […] Un-reacted sites were blocked with a 7-minute injection of ethanolamine at 10 μL/minute. Injections of 2×10 μL of glycine pH 1.5 were used to remove any noncovalently associated protein.
# (§2) For FcγRIIa, FcγRIIb, and FcγRIIIa binding, antibodies were diluted to 5 μg/mL in running buffer, and approximately 500 RU is captured in flow cells 2 through 4 (RUcaptured). FC1 is the reference flow cell. […] Duplicate injections of each concentration were injected over all FCs at 40 L/minute for 60 seconds followed by a 120 second dissociation phase. Regeneration was performed by injecting 15μL of 10 mM glycine pH 1.5 at 30 μL/minute over all FCs.
# (§3) Reference-subtracted data was collected as FC2-FC1, FC3-FC1, and FC4-FC1. The measurements were obtained at 25° C. The affinity (KD) was calculated using the steady state equilibrium analysis with the Scrubber 2 Biacore® Evaluation Software.
# [2] = biological target: T3, neonatal Fc receptor (FcRn) on FcRn Affinity Column Gen2 (Roche, Cat #09430857001) (UniProt P55899 24-297; P61769 21-119, limits assumed); assay: FcRn-HPLC (Roche FcRn Affinity Column Gen2), pH gradient 5.5 to 8.8 over 90 minutes
# Procedure: (§4) Stock antibody solutions were diluted to 1 mg/mL into 20 mM MES, 140 mM NaCl, pH5.5. […] 20 μμL antibody injections were made followed by 10 minute column wash with 20 mM MES, 140 mM NaCl, pH5.5. Antibodies were then eluted by pH gradient elution into 20 mM Tris, 140 mM NaCl, pH8.8 over 90 minutes. Chromatograms were blank-subtracted to remove baseline drift.
# [3] = biological target: T4, human FcγRI (CD64) extracellular domain (human, UniProt P12314 16-292); assay: SPR at 25 C (Biacore T200), antibody captured on Protein A chip, FcγR ECD as analyte; average of 3, SD 0.4
# T4 construct: extracellular domain; also called FcγRI ECD
# Procedure: as §1
# For FcγRI binding, antibodies were diluted to 2.5 g/mL in running buffer (1x HBS-EP+, Teknova P/N H8022), and approximately 150 RU of each antibody was captured in flow cells 2 through 4 (RUcaptured). FC1 was the reference flow cell, therefore, no antibody was captured in FC1. […] Duplicate injections of each concentration were injected over all FCs at 40 μL/minute for 120 seconds followed by a 1200 second dissociation phase. Regeneration was performed by injecting 15 μL of 10 mM glycine pH 1.5 at 30 μL/minute over all FCs. Reference-subtracted data was collected as FC2-FC1, FC3-FC1, and FC4-FC1. The measurements were obtained at 25° C. The affinity (KD) was calculated using either steady state equilibrium analysis with the Scrubber 2 Biacore® Evaluation Software or a “1:1 (Langmuir) binding” model in BIA Evaluation.
# [4] = biological target: T1, human FcγRIIb (CD32b) extracellular …; assay: SPR at 25 C (Biacore T200), antibody captured on Protein A chip, FcγR ECD as analyte, steady state; average of 3, SD 0.17
# Procedure: as §1, §2, §3
# [5] = biological target: T5, Human C1q (MS Biomedical) (human, UniProt P02745 23-245; P02746 28-253; P02747 29-245); assay: C1q ELISA, plate coated with the antibody at 0.19-10 ug/mL, human C1q added at 10 ug/mL, sheep anti-human C1q-HRP detection, OD450
# T5 construct: the three subunits are from general knowledge; also called complement component C1q; Clq
# Procedure: Testing was performed in duplicate wells. The plate was sealed and incubated overnight at 4° C. The coating reagent was removed from each well and 200 μL/well of casein blocking reagent (Thermo) was added. The plate was sealed and incubated for 2 hours at room temperature (RT). Each well was washed 3 times with wash buffer (1xTBE with 0.05% Tween 20). One hundred microliters per well of Human Clq (MS Biomedical) at 10 μg/mL diluted in casein blocking reagent was added and incubated for 3 hours at RT. The plate was then washed three times with wash buffer before 100 L/well of a 1:800 dilution of Sheep anti-human C1q-HRP (Abcam #ab46191) in casein blocker was added and incubated for 1 hour at RT. The plate was washed 6 times with wash buffer, and 100 μL/well of TMB Substrate (Pierce) was added to each well and incubated for 7 minutes. One hundred microliters of 1 N HCl was added to each well to stop the reaction.
# [6] = biological target: T3, neonatal Fc receptor (FcRn) on FcRn …; assay: FcRn-HPLC (Roche FcRn Affinity Column Gen2), peak width at 50% peak height
# Procedure: as §4
# [7] = biological target: T6, Recombinant LEPR extracellular domain fused to hIgG1-Fc (human LEPR ECD-TEV-Fc) (human); assay: ELISA, plate coated with human LEPR ECD (SEQ ID NO:30) at 2 ug/mL, antibody titrated 1:3 from 50 ug/mL, goat anti-human kappa AP detection, OD560
# T6 construct: The entry holds ECD, TEV site, human IgG1 Fc and a His tag in one chain; also called LEPR-Fc; hLEPR-TEV-hIgG1Fc
# T6 sequence (chain, as listed by the source limits assumed): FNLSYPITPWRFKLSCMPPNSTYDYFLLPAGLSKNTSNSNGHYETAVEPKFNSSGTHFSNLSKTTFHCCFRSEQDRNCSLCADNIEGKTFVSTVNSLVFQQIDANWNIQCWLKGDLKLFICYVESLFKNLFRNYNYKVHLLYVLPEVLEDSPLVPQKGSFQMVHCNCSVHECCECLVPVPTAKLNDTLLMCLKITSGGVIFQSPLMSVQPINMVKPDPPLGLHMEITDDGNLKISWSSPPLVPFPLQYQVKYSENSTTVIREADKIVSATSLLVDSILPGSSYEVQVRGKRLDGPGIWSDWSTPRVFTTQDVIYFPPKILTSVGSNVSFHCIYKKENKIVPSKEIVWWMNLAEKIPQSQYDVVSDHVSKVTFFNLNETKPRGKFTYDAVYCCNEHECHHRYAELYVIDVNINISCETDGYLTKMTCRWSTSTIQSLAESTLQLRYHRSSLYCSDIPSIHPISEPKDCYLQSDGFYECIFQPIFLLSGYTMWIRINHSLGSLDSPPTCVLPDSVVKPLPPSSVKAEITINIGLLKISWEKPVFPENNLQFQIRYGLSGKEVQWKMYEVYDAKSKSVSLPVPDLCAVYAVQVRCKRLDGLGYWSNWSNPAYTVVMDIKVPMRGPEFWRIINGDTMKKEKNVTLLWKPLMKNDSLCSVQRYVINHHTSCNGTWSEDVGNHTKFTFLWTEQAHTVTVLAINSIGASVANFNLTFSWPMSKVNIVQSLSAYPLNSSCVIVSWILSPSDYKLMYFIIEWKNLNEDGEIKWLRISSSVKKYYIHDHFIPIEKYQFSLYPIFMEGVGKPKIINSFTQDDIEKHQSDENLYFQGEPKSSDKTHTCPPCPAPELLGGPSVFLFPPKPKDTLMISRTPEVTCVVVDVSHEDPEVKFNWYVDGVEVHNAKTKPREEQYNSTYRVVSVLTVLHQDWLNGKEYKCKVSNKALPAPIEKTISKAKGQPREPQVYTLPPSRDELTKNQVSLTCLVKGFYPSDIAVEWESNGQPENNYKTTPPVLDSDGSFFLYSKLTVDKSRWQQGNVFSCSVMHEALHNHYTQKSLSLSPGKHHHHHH
# Procedure: The plate was then washed. Antibodies were titrated, starting at 50 μg/mL in Casein with 1:3 serial dilutions across the plate. Plate was incubated at RT for 1 hr. The plate is then washed.
# The mixture was incubated at RT for 1 hr. The plate is then washed.
# The curves indicate relative binding of IgG antibodies to human LEPR. The LEPR is bound to an ELISA plate and the antibodies are titrated in 3-fold increments starting at 50 μg/mL.
# T3 sequence (P55899 24-297 limits assumed, chain 1 of 2): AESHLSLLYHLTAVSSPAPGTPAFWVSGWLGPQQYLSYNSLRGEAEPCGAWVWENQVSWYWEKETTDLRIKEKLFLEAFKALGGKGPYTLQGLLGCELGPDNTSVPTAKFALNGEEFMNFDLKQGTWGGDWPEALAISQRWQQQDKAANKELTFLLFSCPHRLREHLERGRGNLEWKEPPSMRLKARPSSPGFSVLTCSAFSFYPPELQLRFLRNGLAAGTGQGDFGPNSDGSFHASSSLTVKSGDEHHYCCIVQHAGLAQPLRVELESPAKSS
# T3 sequence (P61769 21-119 limits assumed, chain 2 of 2): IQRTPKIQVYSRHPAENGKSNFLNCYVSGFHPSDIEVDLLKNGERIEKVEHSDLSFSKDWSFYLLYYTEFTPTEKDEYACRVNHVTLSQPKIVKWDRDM
# T5 sequence (P02745 23-245 limits assumed, chain 1 of 3): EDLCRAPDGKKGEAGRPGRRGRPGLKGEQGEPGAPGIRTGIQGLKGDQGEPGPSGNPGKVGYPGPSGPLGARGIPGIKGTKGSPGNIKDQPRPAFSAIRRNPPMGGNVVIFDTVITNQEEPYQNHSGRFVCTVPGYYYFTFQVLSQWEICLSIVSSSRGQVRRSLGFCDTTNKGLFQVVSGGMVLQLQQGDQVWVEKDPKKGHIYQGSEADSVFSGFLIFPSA
# T5 sequence (P02746 28-253 limits assumed, chain 2 of 3): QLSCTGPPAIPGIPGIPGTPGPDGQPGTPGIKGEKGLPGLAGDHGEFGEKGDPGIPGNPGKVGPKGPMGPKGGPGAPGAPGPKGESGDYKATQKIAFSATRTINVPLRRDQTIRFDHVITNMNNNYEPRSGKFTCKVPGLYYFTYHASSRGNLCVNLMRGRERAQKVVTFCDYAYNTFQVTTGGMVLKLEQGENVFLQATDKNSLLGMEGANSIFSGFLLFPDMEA
# T5 sequence (P02747 29-245 limits assumed, chain 3 of 3): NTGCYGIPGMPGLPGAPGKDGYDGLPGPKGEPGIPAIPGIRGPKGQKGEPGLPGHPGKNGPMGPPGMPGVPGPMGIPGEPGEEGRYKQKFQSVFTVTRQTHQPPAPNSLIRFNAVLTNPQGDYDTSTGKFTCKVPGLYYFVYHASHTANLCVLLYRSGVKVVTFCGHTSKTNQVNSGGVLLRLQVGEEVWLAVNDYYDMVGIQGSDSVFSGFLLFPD
# T4 sequence (P12314 16-292): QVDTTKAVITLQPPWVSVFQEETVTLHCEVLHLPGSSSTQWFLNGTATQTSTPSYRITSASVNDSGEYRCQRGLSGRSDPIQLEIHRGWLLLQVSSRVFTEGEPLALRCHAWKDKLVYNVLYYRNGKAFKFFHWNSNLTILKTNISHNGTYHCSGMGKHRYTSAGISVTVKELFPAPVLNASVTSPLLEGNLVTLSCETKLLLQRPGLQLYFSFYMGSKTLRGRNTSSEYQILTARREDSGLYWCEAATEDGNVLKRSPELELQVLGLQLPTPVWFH
# T2 sequence (P08637 17-208): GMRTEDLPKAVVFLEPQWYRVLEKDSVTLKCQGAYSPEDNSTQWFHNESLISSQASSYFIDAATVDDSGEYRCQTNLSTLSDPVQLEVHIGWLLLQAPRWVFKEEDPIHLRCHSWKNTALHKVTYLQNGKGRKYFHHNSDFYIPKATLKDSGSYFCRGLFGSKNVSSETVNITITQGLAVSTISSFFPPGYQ
Binder,Kd [1] [nM],Retention Time [2] [min],Kd [3] [nM],Kd [4] [nM],EC50 (read off the curve) [5] [µg/mL],Peak Width [6] [min],EC50 (read off the curve) [7] [µg/mL]
"Antibody A-IgG1 (antibody, there they lie 3 residues further on); also called Antibody A-IgG1 control; Antibody-A with non-modified IgG1) heavy: not shown light: DIQMTQSPSFLSASVGDRVTITCRASQGISSSLAWYQQKPGKAPKLLIYTASTLQSGVPSRFSGSGSGTEFTLTISSLQPEDFATYYCQQLIYYPFTFGQGTKVEIKRTVAAPSVFIFPPSDEQLKSGTASVVCLLNNFYPREAKVQWKVDNALQSGNSQESVTEQDSKDSTYSLSSTLTLSKADYEKHKVYACEVTHQGLSSPVTKSFNRGEC",1560,69.5,0.0676,3610,~1,1.7,
"Antibody D (antibody, human IgG1, kappa, L234A L235A, V domains shown, Same HC as Antibody A) VH: EVQLLESGGGLVQPGGSLRLSCAASGFTFSSFAMSWVRQAPGKGLEWVSAISGSGGSTYSADSVRGRFTISRDNSKNTLYLQMNSLRAEDTAVYYCAKDQGDWDFLFDYWGQGTLVTVSS VL: DIQMTQSPSFLSASVGDRVTITCRASQGISSSLAWYQQKPGKAPKLLIYTASTLQSGVPSRFSGSGSGTEFTLTISSLQPEDFATYYCQQLNYYPFTFGQGTKVEIKR",,,,,,,~0.07
Antibody A IgG1-YTE (antibody) heavy: EVQLLESGGGLVQPGGSLRLSCAASGFTFSSFAMSWVRQAPGKGLEWVSAISGSGGSTYSADSVRGRFTISRDNSKNTLYLQMNSLRAEDTAVYYCAKDQGDWDFLFDYWGQGTLVTVSSASTKGPSVFPLAPSSKSTSGGTAALGCLVKDYFPEPVTVSWNSGALTSGVHTFPAVLQSSGLYSLSSVVTVPSSSLGTQTYICNVNHKPSNTKVDKRVEPKSCDKTHTCPPCPAPELLGGPSVFLFPPKPKDTLYITREPEVTCVVVDVSHEDPEVKFNWYVDGVEVHNAKTKPREEQYNSTYRVVSVLTVLHQDWLNGKEYKCKVSNKALPAPIEKTISKAKGQPREPQVYTLPPSREEMTKNQVSLTCLVKGFYPSDIAVEWESNGQPENNYKTTPPVLDSDGSFFLYSKLTVDKSRWQQGNVFSCSVMHEALHNHYTQKSLSLSPGK light: DIQMTQSPSFLSASVGDRVTITCRASQGISSSLAWYQQKPGKAPKLLIYTASTLQSGVPSRFSGSGSGTEFTLTISSLQPEDFATYYCQQLIYYPFTFGQGTKVEIKRTVAAPSVFIFPPSDEQLKSGTASVVCLLNNFYPREAKVQWKVDNALQSGNSQESVTEQDSKDSTYSLSSTLTLSKADYEKHKVYACEVTHQGLSSPVTKSFNRGEC,,80.3,,,,2.8,
"Antibody A IgG4PAA-YTE (antibody, VH and VL matched to Antibody A; Positions are Fc numbering as printed (EU index implied)) heavy: EVQLLESGGGLVQPGGSLRLSCAASGFTFSSFAMSWVRQAPGKGLEWVSAISGSGGSTYSADSVRGRFTISRDNSKNTLYLQMNSLRAEDTAVYYCAKDQGDWDFLFDYWGQGTLVTVSSASTKGPSVFPLAPCSRSTSESTAALGCLVKDYFPEPVTVSWNSGALTSGVHTFPAVLQSSGLYSLSSVVTVPSSSLGTKTYTCNVDHKPSNTKVDKRVESKYGPPCPPCPAPEAAGGPSVFLFPPKPKDTLYITREPEVTCVVVDVSQEDPEVQFNWYVDGVEVHNAKTKPREEQFNSTYRVVSVLTVLHQDWLNGKEYKCKVSNKGLPSSIEKTISKAKGQPREPQVYTLPPSQEEMTKNQVSLTCLVKGFYPSDIAVEWESNGQPENNYKTTPPVLDSDGSFFLYSRLTVDKSRWQEGNVFSCSVMHEALHNHYTQKSLSLSLGK light: DIQMTQSPSFLSASVGDRVTITCRASQGISSSLAWYQQKPGKAPKLLIYTASTLQSGVPSRFSGSGSGTEFTLTISSLQPEDFATYYCQQLIYYPFTFGQGTKVEIKRTVAAPSVFIFPPSDEQLKSGTASVVCLLNNFYPREAKVQWKVDNALQSGNSQESVTEQDSKDSTYSLSSTLTLSKADYEKHKVYACEVTHQGLSSPVTKSFNRGEC",,79.6,,,,2.7,

# Source: patent US20250289897A1 (Eli Lilly, published 2025)
